This data set is described as follows: Sedimentation rate / physical stability of micronized drug dispersions in HFA227 with or without chitosan-PLA nanoparticles. The method, then: Sedimentation rate of micronized insulin in HFA 227 were conducted to test the physical stability of dispersions.
[1] abbreviates: pure (bare) drug particles in HFA227.

We go through one substance from US20110223216A1, “Nanoparticles and Porous Particles and Methods of Making the Same” (WAYNE STATE UNIVERSITY, priority 2008, published 2011).

As for insulin, the creaming of dispersion result under setting [1] is given as “creaming out in seconds”. Besides, the redispersibility entry by setting is: under setting [1], “not being redispersible”; (with chitosan-PLA nanoparticles, HFA227, after storage) “can be redispersed simply by hand-shaking even after several days of storage”. Further, the “physical stability of dispersion” value runs as follows: (pure (bare) drug particles, 2 mg/ml in HFA227, 298K, saturation pressure) “poor stability”; (upon addition of chitosan-PLA nanoparticles (1 or 2 mg/ml), HFA227) “improved”.
